Source: article PMC4775402 (Pharmacological research, 2016)
Where a name gives a salt, the structure may show the parent alone. Blank lines part the entries; values can stand above or below the compound they belong to.

What was measured:
[1] = biological target: T1, WT CXCR1 (Homo sapiens, UniProt P25024); assay: Label-free DMR agonist response, HEK293T expressing WT CXCR1; type: cell-based
T1 sequence (P25024 1-350): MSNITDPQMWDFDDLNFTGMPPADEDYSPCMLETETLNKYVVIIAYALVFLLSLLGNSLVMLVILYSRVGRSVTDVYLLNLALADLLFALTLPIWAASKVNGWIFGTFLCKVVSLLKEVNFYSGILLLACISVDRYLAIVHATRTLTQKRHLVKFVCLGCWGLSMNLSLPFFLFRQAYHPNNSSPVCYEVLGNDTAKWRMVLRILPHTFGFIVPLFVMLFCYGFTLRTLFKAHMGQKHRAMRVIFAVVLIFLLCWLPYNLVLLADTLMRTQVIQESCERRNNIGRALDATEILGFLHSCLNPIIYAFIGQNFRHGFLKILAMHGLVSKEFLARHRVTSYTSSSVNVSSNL

[2] = biological target: T2, ΔPDZ CXCR1 (Homo sapiens, UniProt P25024); assay: Label-free DMR agonist response, HEK293T expressing ΔPDZ CXCR1; type: cell-based
T2 sequence (P25024 1-346 limits assumed): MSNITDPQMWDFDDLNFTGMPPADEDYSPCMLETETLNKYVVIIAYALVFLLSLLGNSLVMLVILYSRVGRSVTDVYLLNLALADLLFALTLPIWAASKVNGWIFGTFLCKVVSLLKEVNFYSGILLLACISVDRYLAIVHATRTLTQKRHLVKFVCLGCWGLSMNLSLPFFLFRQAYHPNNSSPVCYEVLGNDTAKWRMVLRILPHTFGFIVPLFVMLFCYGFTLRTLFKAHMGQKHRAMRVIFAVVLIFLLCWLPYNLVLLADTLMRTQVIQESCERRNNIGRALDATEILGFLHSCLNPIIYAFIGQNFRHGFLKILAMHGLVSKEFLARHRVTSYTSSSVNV

[3] = biological target: T3, WT CXCR2 (Homo sapiens, UniProt P25025); assay: Label-free DMR agonist response, HEK293T expressing WT CXCR2; type: cell-based
T3 sequence (P25025 1-360): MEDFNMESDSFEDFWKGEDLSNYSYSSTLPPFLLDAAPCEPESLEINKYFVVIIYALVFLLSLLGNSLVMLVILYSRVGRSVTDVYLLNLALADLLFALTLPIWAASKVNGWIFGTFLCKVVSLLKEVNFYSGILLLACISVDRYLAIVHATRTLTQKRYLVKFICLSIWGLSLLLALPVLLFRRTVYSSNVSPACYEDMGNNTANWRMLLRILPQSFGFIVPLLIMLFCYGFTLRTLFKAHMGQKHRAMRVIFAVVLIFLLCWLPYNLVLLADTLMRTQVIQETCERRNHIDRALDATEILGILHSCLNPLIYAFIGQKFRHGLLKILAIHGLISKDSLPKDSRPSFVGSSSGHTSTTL

[4] = biological target: T4, ΔPDZ CXCR2 (Homo sapiens, UniProt P25025); assay: Label-free DMR agonist response, HEK293T expressing ΔPDZ CXCR2; type: cell-based
T4 sequence (P25025 1-356 limits assumed): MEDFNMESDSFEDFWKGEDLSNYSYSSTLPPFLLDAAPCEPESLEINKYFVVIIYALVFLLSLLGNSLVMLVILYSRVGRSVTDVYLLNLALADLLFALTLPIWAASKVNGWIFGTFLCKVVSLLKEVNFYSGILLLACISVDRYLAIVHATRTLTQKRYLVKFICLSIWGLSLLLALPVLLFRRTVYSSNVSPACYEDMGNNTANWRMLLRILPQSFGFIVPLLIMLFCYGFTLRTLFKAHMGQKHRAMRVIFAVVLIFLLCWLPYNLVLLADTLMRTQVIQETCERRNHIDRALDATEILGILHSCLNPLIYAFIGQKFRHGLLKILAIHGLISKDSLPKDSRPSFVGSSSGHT

[5] = biological target: T5, WT CXCR3 (Homo sapiens, UniProt P49682); assay: Label-free DMR agonist response, HEK293T expressing WT CXCR3; type: cell-based
T5 sequence (P49682 1-368): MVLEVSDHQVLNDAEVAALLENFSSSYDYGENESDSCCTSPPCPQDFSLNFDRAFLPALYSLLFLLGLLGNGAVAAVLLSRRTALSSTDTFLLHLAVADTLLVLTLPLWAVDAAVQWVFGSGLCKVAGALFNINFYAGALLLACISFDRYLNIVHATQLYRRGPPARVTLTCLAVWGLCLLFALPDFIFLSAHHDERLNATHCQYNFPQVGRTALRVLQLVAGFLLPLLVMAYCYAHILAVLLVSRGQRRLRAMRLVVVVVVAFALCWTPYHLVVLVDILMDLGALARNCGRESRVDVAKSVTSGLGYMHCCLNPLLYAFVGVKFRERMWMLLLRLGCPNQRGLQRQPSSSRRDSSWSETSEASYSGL

[6] = biological target: T6, ΔPDZ CXCR3 (Homo sapiens, UniProt P49682); assay: Label-free DMR agonist response, HEK293T expressing ΔPDZ CXCR3; type: cell-based
T6 sequence (P49682 1-364 limits assumed): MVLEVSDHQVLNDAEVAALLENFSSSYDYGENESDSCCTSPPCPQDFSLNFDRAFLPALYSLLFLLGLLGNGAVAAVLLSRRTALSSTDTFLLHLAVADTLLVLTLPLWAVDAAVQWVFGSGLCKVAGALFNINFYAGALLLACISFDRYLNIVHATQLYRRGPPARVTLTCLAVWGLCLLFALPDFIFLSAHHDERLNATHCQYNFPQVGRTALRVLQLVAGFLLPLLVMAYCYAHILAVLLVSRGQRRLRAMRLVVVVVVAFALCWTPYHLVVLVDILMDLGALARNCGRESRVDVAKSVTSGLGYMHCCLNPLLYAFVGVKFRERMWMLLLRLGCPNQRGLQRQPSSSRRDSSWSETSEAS

[7] = biological target: T7, WT CXCR5 (Homo sapiens, UniProt P32302); assay: Label-free DMR agonist response, HEK293T expressing WT CXCR5; type: cell-based
T7 sequence (P32302 1-372): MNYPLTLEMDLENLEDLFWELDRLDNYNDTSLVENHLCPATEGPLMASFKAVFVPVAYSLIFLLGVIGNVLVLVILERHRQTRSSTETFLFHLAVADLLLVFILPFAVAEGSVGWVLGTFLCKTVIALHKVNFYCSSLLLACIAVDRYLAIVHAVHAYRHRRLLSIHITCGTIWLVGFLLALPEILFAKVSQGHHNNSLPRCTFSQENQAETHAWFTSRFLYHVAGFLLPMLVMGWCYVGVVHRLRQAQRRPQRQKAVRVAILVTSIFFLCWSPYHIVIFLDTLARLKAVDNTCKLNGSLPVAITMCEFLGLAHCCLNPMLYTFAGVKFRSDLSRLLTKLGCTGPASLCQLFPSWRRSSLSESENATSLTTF

[8] = biological target: T8, ΔPDZ CXCR5 (Homo sapiens, UniProt P32302); assay: Label-free DMR agonist response, HEK293T expressing ΔPDZ CXCR5; type: cell-based
T8 sequence (P32302 1-368 limits assumed): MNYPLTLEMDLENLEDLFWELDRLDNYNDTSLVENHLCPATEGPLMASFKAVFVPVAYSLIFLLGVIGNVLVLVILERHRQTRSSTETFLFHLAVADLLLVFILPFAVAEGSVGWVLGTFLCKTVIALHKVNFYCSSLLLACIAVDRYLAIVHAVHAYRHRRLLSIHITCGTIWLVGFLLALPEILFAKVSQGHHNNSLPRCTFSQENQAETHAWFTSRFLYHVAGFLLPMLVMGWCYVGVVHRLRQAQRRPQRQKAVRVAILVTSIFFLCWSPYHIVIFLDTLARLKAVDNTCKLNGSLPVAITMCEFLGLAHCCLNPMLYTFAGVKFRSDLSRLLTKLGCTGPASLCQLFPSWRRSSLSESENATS

[9] = biological target: WT HRH3 (Homo sapiens, UniProt Q9Y5N1); conditions: HEK293T
[10] = biological target: ΔPDZ HRH3 (Homo sapiens, UniProt Q9Y5N1); conditions: HEK293T
[11] = tested on: WT ADRA1D; conditions: cited from earlier work
[12] = tested on: ΔPDZ ADRA1D; conditions: cited from earlier work

ΔPDZ HRH3, sequence (Q9Y5N1 1-449 isoform Q9Y5N1-2): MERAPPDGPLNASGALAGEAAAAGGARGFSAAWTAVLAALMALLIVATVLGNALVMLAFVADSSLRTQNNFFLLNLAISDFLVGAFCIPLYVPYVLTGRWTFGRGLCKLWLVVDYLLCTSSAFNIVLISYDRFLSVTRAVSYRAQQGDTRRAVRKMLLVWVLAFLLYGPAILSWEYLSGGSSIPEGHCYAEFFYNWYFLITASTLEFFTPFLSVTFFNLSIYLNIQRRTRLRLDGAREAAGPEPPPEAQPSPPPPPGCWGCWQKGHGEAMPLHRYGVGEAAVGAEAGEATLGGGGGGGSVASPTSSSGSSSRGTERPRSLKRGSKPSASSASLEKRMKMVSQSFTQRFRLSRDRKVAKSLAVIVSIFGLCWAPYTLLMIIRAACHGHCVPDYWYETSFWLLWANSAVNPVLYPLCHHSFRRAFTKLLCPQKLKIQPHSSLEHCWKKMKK
WT HRH3, sequence (Q9Y5N1 1-453 isoform Q9Y5N1-2): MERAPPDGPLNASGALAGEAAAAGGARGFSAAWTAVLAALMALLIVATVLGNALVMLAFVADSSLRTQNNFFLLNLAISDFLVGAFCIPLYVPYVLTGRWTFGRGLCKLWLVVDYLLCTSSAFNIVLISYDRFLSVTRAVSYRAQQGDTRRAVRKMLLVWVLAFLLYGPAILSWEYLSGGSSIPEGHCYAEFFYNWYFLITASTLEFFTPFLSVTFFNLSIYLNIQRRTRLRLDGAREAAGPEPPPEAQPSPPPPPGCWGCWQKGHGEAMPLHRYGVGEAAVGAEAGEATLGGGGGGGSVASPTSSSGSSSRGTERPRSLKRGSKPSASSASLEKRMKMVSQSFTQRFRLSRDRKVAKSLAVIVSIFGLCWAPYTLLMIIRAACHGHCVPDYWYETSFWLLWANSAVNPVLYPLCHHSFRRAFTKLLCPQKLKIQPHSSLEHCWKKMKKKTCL

WT pEC50 ([1]; WT CXCR1, DMR CRC): −8.29 ± 0.07
WT Max (DMR) ([1]; WT CXCR1, maximal agonist DMR response): 69.69 ± 1.88
WT TTP ([1]; WT CXCR1, time to peak DMR): 3.60 s
ΔPDZ pEC50 ([2]; ΔPDZ CXCR1, DMR CRC): −7.08 ± 0.45
ΔPDZ Max (DMR) ([2]; ΔPDZ CXCR1, maximal agonist DMR response): 9.48 ± 1.53
ΔPDZ TTP ([2]; ΔPDZ CXCR1, time to peak DMR): 3.80 s
WT pEC50 ([3]; WT CXCR2, DMR CRC): −8.53 ± 0.11
WT Max (DMR) ([3]; WT CXCR2, maximal agonist DMR response): 34.89 ± 2.08
WT TTP ([3]; WT CXCR2, time to peak DMR): 3.20 s
ΔPDZ pEC50 ([4]; ΔPDZ CXCR2, DMR CRC): −8.45 ± 0.13
ΔPDZ Max (DMR) ([4]; ΔPDZ CXCR2, maximal agonist DMR response): 37.50 ± 2.20
ΔPDZ TTP ([4]; ΔPDZ CXCR2, time to peak DMR): 3.50 s
WT Max (DMR) ([5]; WT CXCR3, maximal agonist DMR response): 10.17 ± 2.00
WT TTP ([5]; WT CXCR3, time to peak DMR): 11.70 s
ΔPDZ Max (DMR) ([6]; ΔPDZ CXCR3, maximal agonist DMR response): 18.3 ± 3.16
ΔPDZ TTP ([6]; ΔPDZ CXCR3, time to peak DMR): 15.60 s
WT pEC50 ([7]; WT CXCR5, DMR CRC): −10.34 ± 0.16
WT Max (DMR) ([7]; WT CXCR5, maximal agonist DMR response): 23.22 ± 1.80
WT TTP ([7]; WT CXCR5, time to peak DMR): 2.50 s
ΔPDZ pEC50 ([8]; ΔPDZ CXCR5, DMR CRC): −9.97 ± 0.12
ΔPDZ Max (DMR) ([8]; ΔPDZ CXCR5, maximal agonist DMR response): 40.70 ± 2.54
ΔPDZ TTP ([8]; ΔPDZ CXCR5, time to peak DMR): 2.30 s
Compound: interleukin-8

WT Max (DMR) ([9]; WT HRH3, maximal agonist DMR response): 46.97 ± 3.71
WT TTP ([9]; WT HRH3, time to peak DMR): 7.30 s
ΔPDZ Max (DMR) ([10]; ΔPDZ HRH3, maximal agonist DMR response): 60.19 ± 5.07
ΔPDZ TTP ([10]; ΔPDZ HRH3, time to peak DMR): 6.30 s
Compound: NCCc1c[nH]cn1 [Histamine, histamine dihydrochloride]

Compound: CNC[C@H](O)c1cccc(O)c1 [phenylephrine]
enhancement of the DMR response ([11]; ADRA1D with overexpression of SCRIB alone): ~5 fold
activation, DMR (in words) ([11]; WT ADRA1D): weak activation
activation, DMR (in words) [12]: weak activation
